Among the data in patent US20150132317A1 are mean fluorescence intensity (MFI) values, retold here.

This test deals with ALK F1174L, human (human) (UniProt Q9UM73). Nature of the test: flow cytometry, SY5Y cells stained with isotype control. Background: Flow cytometry measures light scatter and fluorescence of single cells or particles in a stream.

In the case of isotype control (antibody), the mean fluorescence intensity (MFI) amounted to 90.
